Reference: patent publication US20220267469A1 (LIPUM, published 2022)
Substitutions are numbered along the chain they refer to. Names and notes keep the numbering of the source. One block for each binder: values may come before it.

How the values were obtained:
Biotinylated human BSSL [1] = target: T1, Biotinylated human BSSL (human, UniProt P19835 21-753, Biotinylated on glycosacarides, 30-40 biotin/BSSL); assay: flow cytometry displacement assay; 1.5 ug antibody, 1 ug b-hBSSL
T1 construct: hBSSL biotinylated in house; also called b-hBSSL; human BSSL-biotin
T1 sequence: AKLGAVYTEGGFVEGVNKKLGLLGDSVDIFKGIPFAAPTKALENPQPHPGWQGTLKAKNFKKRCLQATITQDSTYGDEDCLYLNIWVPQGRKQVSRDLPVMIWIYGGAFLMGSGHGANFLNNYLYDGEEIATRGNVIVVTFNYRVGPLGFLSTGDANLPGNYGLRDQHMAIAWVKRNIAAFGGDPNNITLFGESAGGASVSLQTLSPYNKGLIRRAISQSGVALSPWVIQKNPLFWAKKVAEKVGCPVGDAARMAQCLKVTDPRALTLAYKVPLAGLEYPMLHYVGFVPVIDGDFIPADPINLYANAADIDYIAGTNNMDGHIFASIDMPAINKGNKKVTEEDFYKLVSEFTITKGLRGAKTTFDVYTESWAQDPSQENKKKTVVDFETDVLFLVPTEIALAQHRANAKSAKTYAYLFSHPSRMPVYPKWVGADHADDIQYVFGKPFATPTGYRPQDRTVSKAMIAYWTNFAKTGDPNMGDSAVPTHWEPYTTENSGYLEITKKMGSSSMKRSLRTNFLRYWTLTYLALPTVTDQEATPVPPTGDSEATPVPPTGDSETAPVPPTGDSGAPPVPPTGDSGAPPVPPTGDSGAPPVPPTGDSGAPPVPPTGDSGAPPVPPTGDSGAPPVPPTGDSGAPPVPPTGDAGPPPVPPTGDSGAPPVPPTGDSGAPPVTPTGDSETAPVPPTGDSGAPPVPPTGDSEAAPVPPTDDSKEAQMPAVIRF
Method: (§1) The 28 BSSL-specific hIgG4 antibodies and the five reference antibodies at different concentrations (ranging from 0.5 μg to 3.0 μg per reaction; see Table 10) were added to b-hBSSL (1 μg per reaction, see Table 2) in round-bottom polystyrene tubes, lx PBS (pH 7.4) was added to a final volume of 20 μl and the antibody/b-hBSSL mixtures were incubated for 30 min. at +4° C. to facilitate binding of antibodies to BSSL. Buffy coat (50 μl) was then added to each antibody/b-hBSSL mixture and incubation continued for another 30 min at +4° C. Thereafter, 2 ml of FACS lysing solution (BD Biosciences) was added and the cells were incubated for 10 min at room temperature in order to lyse erythrocytes and fix the white blood cells. The cells were then centrifuged for 5 min. at 200×g, the resulting pellets were washed by adding 2 ml of FACS buffer (1×PBS supplemented with 1% FCS and 0.1% NaN3) and centrifuged again. Finally, the supernatants were discarded and the cells were resuspended in the last drop of liquid, approximately 50 μl.
(§2) 5 μl of BV421-labelled anti-human CD14 (BD Biosciences) and 5 μl of BB515-labelled streptavidin (BD Biosciences) was added to each tube and incubated for 30 min, at +4° C., protected from light. Thereafter, cells were washed twice with FACS buffer, resuspended in 500 μl FACS buffer, and run on BD LSRII flow cytometer (BD Biosciences). Finally, data were analyzed using FlowJo software (BD Biosciences).

[2] = target: T2, Human BSSL (bile salt-stimulated lipase), native (human, UniProt P19835 21-753); assay: cell-based or functional assay
T2 sequence: T1 sequence

Biotinylated human BSSL [3] = target: T1, Biotinylated human BSSL; assay: flow cytometry displacement assay; 3.0 ug antibody, 1 ug b-hBSSL
Method: as §1, §2

[4] = target: T2, Human BSSL (bile salt-stimulated …); assay: SPR single cycle kinetics, captured by anti-Fab, Absolute Antibody batch
Method: (§3) Kinetic parameters of the hIgG4 S228P clones were determined by SPR using BIACORE® T200 (GE Healthcare). An anti-Fab antibody (GE #28958325) was immobilized on a CM5 S sensor chip by primary amine coupling using NHS-EDC chemistry. The hIgG4 antibodies were captured by the anti-Fab antibody, and subsequently, five different concentrations of hBSSL (1:5 dilutions, 0.08-50 nM) or mBSSL (1:2 dilutions, 50-800 nM) were injected over the surface. The sensor chip surface was regenerated with 10 mM glycine-HCl pH 2.1. For binding to human BSSL, single cycle kinetic data was fitted to a 1:1 binding model and kinetic parameters were retrieved using software BlAevaluation. For mouse BSSL, a steady state analysis was performed by plotting the response level at equilibrium against each concentration, and KD values were retrieved by the BlAevalution software.

[5] = target: T2, Human BSSL (bile salt-stimulated …); assay: cell-based or functional assay; remark: listed apart in the source
Mouse BSSL, recombinant [6] = target: T3, Mouse BSSL, recombinant (mouse, UniProt Q64285 21-599); assay: SPR steady state, hIgG4 S228P captured by anti-Fab
T3 construct: Bought (R&D Systems, Cat. no 5658-CE); also called mBSSL; murine BSSL
T3 sequence: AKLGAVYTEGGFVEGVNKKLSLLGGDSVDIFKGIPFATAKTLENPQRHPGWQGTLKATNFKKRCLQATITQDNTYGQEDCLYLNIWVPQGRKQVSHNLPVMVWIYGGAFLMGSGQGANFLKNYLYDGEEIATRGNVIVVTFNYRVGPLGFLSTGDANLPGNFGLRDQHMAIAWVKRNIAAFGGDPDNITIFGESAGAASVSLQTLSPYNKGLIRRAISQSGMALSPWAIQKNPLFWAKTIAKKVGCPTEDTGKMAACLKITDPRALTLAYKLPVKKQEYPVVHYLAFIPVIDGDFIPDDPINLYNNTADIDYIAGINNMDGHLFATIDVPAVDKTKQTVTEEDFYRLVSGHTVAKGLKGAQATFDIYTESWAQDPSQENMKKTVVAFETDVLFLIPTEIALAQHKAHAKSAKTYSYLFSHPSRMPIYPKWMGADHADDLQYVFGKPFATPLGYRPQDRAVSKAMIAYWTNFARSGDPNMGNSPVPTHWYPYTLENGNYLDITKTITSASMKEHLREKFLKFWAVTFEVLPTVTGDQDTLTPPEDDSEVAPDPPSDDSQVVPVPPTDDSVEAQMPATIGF
Method: (§4) Kinetic parameters of the hIgG4 S228P clones were determined by SPR using BIACORE® T200 (GE Healthcare). Single cycle kinetics was used to measure the affinity of the purified hIgG4 molecules to human and mouse BSSL. An anti-Fab antibody (GE Healthcare, #28958325) was immobilized on a CM5 S sensor chip by primary amine coupling using NHS-EDC chemistry. hIgG4 was captured by the anti-Fab antibody, and subsequently, five different concentrations of hBSSL (1:5 dilutions starting from 50 nM) or mBSSL (1:5 dilutions starting from 500 nM) were injected over the surface. The sensor chip surface was regenerated with 10 mM glycine-HCl pH 2.1. For binding to human BSSL, single cycle kinetic data was fitted to a 1:1 binding model and kinetic parameters were retrieved using software BlAevaluation. For mouse BSSL, a steady state analysis was performed by plotting the response level at equilibrium against each concentration, and KD values were retrieved by the BlAevalution software.

Mouse BSSL, recombinant [7] = target: T3, Mouse BSSL, recombinant; assay: SPR steady state, captured by anti-Fab, Absolute Antibody batch
Method: as §3

[8] = target: T2, Human BSSL (bile salt-stimulated …); assay: SPR single cycle kinetics, hIgG4 S228P captured by anti-Fab
Method: as §4

Biotinylated human BSSL [9] = target: T1, Biotinylated human BSSL; assay: flow cytometry displacement assay; 1.0 ug antibody, 1 ug b-hBSSL
Method: as §1, §2

Biotinylated human BSSL [10] = target: T1, Biotinylated human BSSL; assay: flow cytometry displacement assay; 0.5 ug antibody, 1 ug b-hBSSL
Method: as §1, §2

Biotinylated human BSSL [11] = target: T1, Biotinylated human BSSL; assay: flow cytometry displacement assay; 2.0 ug antibody, 1 ug b-hBSSL
Method: as §1, §2

percentage reduction of b-hBSSL binding to CD14+ monocytes (Biotinylated human BSSL [1]): 43%
BSSL hydrolysis of cholesterol esters, relative value (no antibody = 100%); 0.19 ug antibody [2]: 95.7%
BSSL hydrolysis of cholesterol esters, relative value (no antibody = 100%); 0.38 ug antibody [2]: 99%
BSSL hydrolysis of cholesterol esters, relative value (no antibody = 100%); 0.75 ug antibody [2]: 97.6%
BSSL hydrolysis of cholesterol esters, relative value (no antibody = 100%); 1.5 ug antibody [2]: 88.3%
BSSL hydrolysis of cholesterol esters, relative value (no antibody = 100%); 3.0 ug antibody [2]: 93.5%
BSSL hydrolysis of cholesterol esters, relative value (no antibody = 100%); 6.0 ug antibody [2]: 97.7%
percentage reduction of b-hBSSL binding to CD14+ monocytes (Biotinylated human BSSL [3]): 61%
Kd [4]: 3.8 nM
BSSL hydrolysis of triglycerides, relative value (no antibody = 100%); 0.19 ug antibody [5]: 105%
BSSL hydrolysis of triglycerides, relative value (no antibody = 100%); 0.38 ug antibody [5]: 123%
BSSL hydrolysis of triglycerides, relative value (no antibody = 100%); 0.75 ug antibody [5]: 121%
BSSL hydrolysis of triglycerides, relative value (no antibody = 100%); 1.5 ug antibody [5]: 113%
BSSL hydrolysis of triglycerides, relative value (no antibody = 100%); 3.0 ug antibody [5]: 119%
BSSL hydrolysis of triglycerides, relative value (no antibody = 100%); 6.0 ug antibody [5]: 126%
Kd (Mouse BSSL, recombinant [6]): 24 nM
Kd (Mouse BSSL, recombinant [7]): 55 nM
Kd [8]: 3.7 nM
B1: S-SL048-46 hIgG4 S228P (antibody, V domains shown)
VH: QVQLVQSGAEVKKPGASVKVSCKASGYTFTSYNMHWVRQAPGQGLEWMGVINPGDGATSYNQKFQGRVTMTRDTSTSTVYMELSSLRSEDTAVYYCARDYYGSSPLGYWGQGTLVTVSS
VL: DIQMTQSPSSLSASVGDRVTITCRASSSISYLNWYQQKPGKAPKLLIYAASSLASGVPSRFSGSGSGTDFTLTISSLQPEDFATYYCHQRSSSPTFGQGTKLEIKR
notes: also called clone 46; mAb46

percentage reduction of b-hBSSL binding to CD14+ monocytes (Biotinylated human BSSL [1]): 44%
percentage reduction of b-hBSSL binding to CD14+ monocytes (Biotinylated human BSSL [3]): 53%
Kd (Mouse BSSL, recombinant [6]): 87 nM
percentage reduction of b-hBSSL binding to CD14+ monocytes (Biotinylated human BSSL [9]): 28%
percentage reduction of b-hBSSL binding to CD14+ monocytes (Biotinylated human BSSL [10]): 20%
Kd [8]: 1 nM
B2: S-SL048-40 hIgG4 S228P (antibody, V domains shown)
VH: B1 VH with M48I, G54S, N61A
VL: DIQMTQSPSSLSASVGDRVTITCRASSSISYLNWYQQKPGKAPKLLIYAASRLPSGVPSRFSGSGSGTDFTLTISSLQPEDFATYYCQQRSSSPTFGQGTKLEIK
notes: Tested as human IgG4 S228P

percentage reduction of b-hBSSL binding to CD14+ monocytes (Biotinylated human BSSL [1]): 51%
percentage reduction of b-hBSSL binding to CD14+ monocytes (Biotinylated human BSSL [3]): 72%
percentage reduction of b-hBSSL binding to CD14+ monocytes (Biotinylated human BSSL [11]): 71%
Kd (Mouse BSSL, recombinant [6]): 79 nM
percentage reduction of b-hBSSL binding to CD14+ monocytes (Biotinylated human BSSL [9]): 29%
percentage reduction of b-hBSSL binding to CD14+ monocytes (Biotinylated human BSSL [10]): 12%
Kd [8]: 1.2 nM
B3: S-SL048-41 hIgG4 S228P (antibody, V domains shown)
VH: B1 VH with M48I, N52Y, N61A, Q65K
VL: B2 VL with L32M, A50T, Q88H
notes: Tested as human IgG4 S228P
